Test results: EP4717706A1

Assays:
[1] = molecular target: VLP2 (virus-like particles, capsid protein particles of AAV serotype 2) (AAV serotype 2 (AAV2)) (UniProt P03135); experiment: ELISA on immobilised VLP2 (purified protein, 5 µg/mL); A450 after 1:1 1 M NaOH with 1 mM CaCl2, 30°C, 20 min divided by A450 at 0 time
[2] = molecular target: VLP2 (virus-like particles, capsid protein particles of AAV serotype 2) (AAV serotype 2 (AAV2)) (UniProt P03135); experiment: ELISA on immobilised VLP2 (purified protein, 5 µg/mL); start of alkali treatment, the reference of the ratio
[3] = molecular target: VLP2 (virus-like particles, capsid protein particles of AAV serotype 2) (AAV serotype 2 (AAV2)) (UniProt P03135); experiment: ELISA on immobilised VLP2 (purified protein, 5 µg/mL); A450 after 1:1 1 M NaOH with 1 mM CaCl2, 30°C, 60 min divided by A450 at 0 time
[4] = molecular target: VLP2 (virus-like particles, capsid protein particles of AAV serotype 2) (AAV serotype 2 (AAV2)) (UniProt P03135); experiment: as above; remark: listed apart in the source
[5] = molecular target: VLP2 (virus-like particles, capsid protein particles of AAV serotype 2) (AAV serotype 2 (AAV2)) (UniProt P03135); experiment: ELISA on immobilised VLP2 (purified protein, 5 µg/mL); A450 after 1:1 1 M NaOH with 1 mM CaCl2, 30°C, 30 min divided by A450 at 0 time
[6] = molecular target: VLP2 (virus-like particles, capsid protein particles of AAV serotype 2) (AAV serotype 2 (AAV2)) (UniProt P03135); experiment: as above; remark: listed apart in the source
[7] = molecular target: VLP2 (virus-like particles, capsid protein particles of AAV serotype 2) (AAV serotype 2 (AAV2)) (UniProt P03135); experiment: ELISA on immobilised VLP2 (culture supernatant); A450 after 1:1 1 M NaOH, 15 min, 30°C divided by A450 untreated
[8] = molecular target: VLP2 (virus-like particles, capsid protein particles of AAV serotype 2) (AAV serotype 2 (AAV2)) (UniProt P03135); experiment: ELISA on immobilised VLP2 (purified protein, 5 µg/mL); A450 after 1:1 1 M NaOH with 1 mM CaCl2, 30°C, 60 min divided by A450 at 0 time; remark: listed apart in the source
[9] = molecular target: VLP2 (virus-like particles, capsid protein particles of AAV serotype 2) (AAV serotype 2 (AAV2)) (UniProt P03135); experiment: ELISA on immobilised VLP2 (purified protein, 5 µg/mL); A450 after 1:1 1 M NaOH with 1 mM CaCl2, 30°C, 45 min divided by A450 at 0 time
[10] = molecular target: VLP2 (virus-like particles, capsid protein particles of AAV serotype 2) (AAV serotype 2 (AAV2)) (UniProt P03135); experiment: ELISA on immobilised VLP2 (purified protein, 5 µg/mL); A450 after 1:1 1 M NaOH with 1 mM CaCl2, 30°C, 30 min divided by A450 at 0 time; remark: listed apart in the source
[11] = molecular target: VLP2 (virus-like particles, capsid protein particles of AAV serotype 2) (AAV serotype 2 (AAV2)) (UniProt P03135); experiment: ELISA on immobilised VLP2 (purified protein); start of alkali treatment, the reference of the ratio
[12] = molecular target: VLP2 (virus-like particles, capsid protein particles of AAV serotype 2) (AAV serotype 2 (AAV2)) (UniProt P03135); experiment: ELISA on immobilised VLP2 (purified protein); A450 after 1:1 0.5 M NaOH, 30°C, 30 min divided by A450 at 0 time
[13] = molecular target: VLP2 (virus-like particles, capsid protein particles of AAV serotype 2) (AAV serotype 2 (AAV2)) (UniProt P03135); experiment: ELISA on immobilised VLP2 (purified protein); A450 after 1:1 0.5 M NaOH, 30°C, 60 min divided by A450 at 0 time
[14] = molecular target: VLP2 (virus-like particles, capsid protein particles of AAV serotype 2) (AAV serotype 2 (AAV2)) (UniProt P03135); experiment: ELISA on immobilised VLP2 (purified protein, 5 µg/mL); A450 after 1:1 1 M NaOH with 1 mM CaCl2, 30°C, 20 min divided by A450 at 0 time; remark: listed apart in the source

Chain of UniProt P03135 (P03135 whole entry): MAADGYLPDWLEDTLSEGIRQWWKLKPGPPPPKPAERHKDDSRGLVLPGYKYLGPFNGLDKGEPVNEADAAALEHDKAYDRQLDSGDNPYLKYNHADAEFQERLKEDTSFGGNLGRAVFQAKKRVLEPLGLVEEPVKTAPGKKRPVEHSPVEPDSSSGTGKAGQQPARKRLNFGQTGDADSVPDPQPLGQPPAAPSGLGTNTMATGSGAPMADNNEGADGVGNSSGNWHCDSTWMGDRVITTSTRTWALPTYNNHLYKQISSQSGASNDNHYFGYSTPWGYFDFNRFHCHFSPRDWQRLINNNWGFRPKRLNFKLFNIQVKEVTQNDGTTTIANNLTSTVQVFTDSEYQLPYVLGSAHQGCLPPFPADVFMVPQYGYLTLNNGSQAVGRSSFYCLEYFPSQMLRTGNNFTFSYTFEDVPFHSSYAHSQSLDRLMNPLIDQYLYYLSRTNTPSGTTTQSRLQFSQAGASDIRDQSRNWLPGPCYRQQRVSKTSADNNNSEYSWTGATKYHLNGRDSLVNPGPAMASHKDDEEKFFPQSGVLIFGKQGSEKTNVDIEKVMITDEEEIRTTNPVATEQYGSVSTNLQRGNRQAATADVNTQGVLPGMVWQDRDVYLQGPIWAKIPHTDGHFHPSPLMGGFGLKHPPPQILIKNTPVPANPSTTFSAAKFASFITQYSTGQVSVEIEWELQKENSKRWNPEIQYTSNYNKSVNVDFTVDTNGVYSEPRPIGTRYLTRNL

Row | Binder | Remaining activity [%] [1] [%] | Remaining activity [%] [2] [%] | Remaining activity [%] [4] [%] | Remaining activity [%] [9] [%] | Remaining activity [%] [11] [%] | Remaining activity [%] [12] [%] | Remaining activity [%] [13] [%] | also measured
1 | AVR28 (AVR25c with I366F, V394A, K455R) (receptor) MGSAGESDQITLPKHEAQLKVYVLLVPPKGEASTYDWQLITHPRDYSGEMEGEHSQFLKLSNLTPGLYEYRAVVEGQNAHSEGYANVTVEPGPRKNRPPIAIVSPQFQEISLPTTSAVIDGSQSTDDDKIVQYHWEELKGPLREERISEDTPILKLSNLVPGNYTFRLTVVDTDGATDSTTADLTVNKAVDHHHHHH | 42.5 | 100 | 1.22 | – | – | – | – | Remaining activity [%] [3]: 6.29%; Remaining activity [%] [5]: 42%; Remaining activity [%] [6]: 22.5%; Remaining activity [%] [7]: 71.9%; Remaining activity [%] [8]: 3%
2 | AVR27b (AVR25c with I366F, T474R) (receptor) MGSAGESDQITLPKHEAQLKVYVLLVPPKGEASTYDWQLITHPRDYSGEMEGEHSQFLKLSNLTPGLYEYRAVVEGQNAHSEGYVNVTVEPGPRKNRPPIAIVSPQFQEISLPTTSAVIDGSQSTDDDKIVQYHWEELKGPLREEKISEDTPILKLSNLVPGNYRFRLTVVDTDGATDSTTADLTVNKAVDHHHHHH | – | 100 | – | 4.54 | – | – | – | Remaining activity [%] [10]: 17.1%
3 | AVR27c (AVR25c with V394A, T474R) (receptor) MGSAGESDQITLPKHEAQLKVYVLLVPPKGEASTYDWQLITHPRDYSGEMEGEHSQILKLSNLTPGLYEYRAVVEGQNAHSEGYANVTVEPGPRKNRPPIAIVSPQFQEISLPTTSAVIDGSQSTDDDKIVQYHWEELKGPLREEKISEDTPILKLSNLVPGNYRFRLTVVDTDGATDSTTADLTVNKAVDHHHHHH | – | 100 | – | 1.73 | – | – | – | Remaining activity [%] [10]: 13.6%
4 | AVR25b (AVR21 with K338R, E401G, T426A, A461P) (receptor) MGSAGESDQITLPKHEAQLNVYVLLVPPRGEASTYDWQLITHPRDYSGEMEGEHSQILKLSNLTPGLYEYRAVVEGQNAHSEGYVNVTVEPGPRKNRPPIAIVSPQFQEISLPTTSAVIDGSQSTDDDKIVQYHWEELKGPLREEKISEDTPILKLSQLVPGNYTFRLTVVDTDGATDSTTADLTVNKAVDHHHHHH | – | – | – | – | 100 | 100 | 1.5 | –
5 | AVR29c (AVR25c with I366F, V394A, K455R, K497E) (receptor) MGSAGESDQITLPKHEAQLKVYVLLVPPKGEASTYDWQLITHPRDYSGEMEGEHSQFLKLSNLTPGLYEYRAVVEGQNAHSEGYANVTVEPGPRKNRPPIAIVSPQFQEISLPTTSAVIDGSQSTDDDKIVQYHWEELKGPLREERISEDTPILKLSNLVPGNYTFRLTVVDTDGATDSTTADLTVNEAVDHHHHHH | 93.2 | 100 | 2.39 | 1.93 | – | – | – | Remaining activity [%] [3]: 15.7%; Remaining activity [%] [5]: 57.7%; Remaining activity [%] [14]: 78.7%
6 | AVR29d (AVR25c with I366F, V394A, K455R, V499I) (receptor) MGSAGESDQITLPKHEAQLKVYVLLVPPKGEASTYDWQLITHPRDYSGEMEGEHSQFLKLSNLTPGLYEYRAVVEGQNAHSEGYANVTVEPGPRKNRPPIAIVSPQFQEISLPTTSAVIDGSQSTDDDKIVQYHWEELKGPLREERISEDTPILKLSNLVPGNYTFRLTVVDTDGATDSTTADLTVNKAIDHHHHHH | 68.6 | 100 | 1.06 | 4.47 | – | – | – | Remaining activity [%] [14]: 63%
7 | AVR26 (AVR21 with N329K, K338R, E401G, T426A, A461P) (receptor) MGSAGESDQITLPKHEAQLKVYVLLVPPRGEASTYDWQLITHPRDYSGEMEGEHSQILKLSNLTPGLYEYRAVVEGQNAHSEGYVNVTVEPGPRKNRPPIAIVSPQFQEISLPTTSAVIDGSQSTDDDKIVQYHWEELKGPLREEKISEDTPILKLSQLVPGNYTFRLTVVDTDGATDSTTADLTVNKAVDHHHHHH | – | – | – | – | 100 | 100 | 23.9 | –
8 | AVR29b (AVR25c with G314D, I366F, V394A, K455R) (receptor) MGSADESDQITLPKHEAQLKVYVLLVPPKGEASTYDWQLITHPRDYSGEMEGEHSQFLKLSNLTPGLYEYRAVVEGQNAHSEGYANVTVEPGPRKNRPPIAIVSPQFQEISLPTTSAVIDGSQSTDDDKIVQYHWEELKGPLREERISEDTPILKLSNLVPGNYTFRLTVVDTDGATDSTTADLTVNKAVDHHHHHH | 63.7 | 100 | 1.08 | 1.31 | – | – | – | Remaining activity [%] [14]: 58.7%
9 | AVR24b (AVR21 with K338R, T426A, A461P) (receptor) MGSAGESDQITLPKHEAQLNVYVLLVPPRGEASTYDWQLITHPRDYSGEMEGEHSQILKLSNLTPGLYEYRAVVEGQNAHSEGYVNVTVEPEPRKNRPPIAIVSPQFQEISLPTTSAVIDGSQSTDDDKIVQYHWEELKGPLREEKISEDTPILKLSQLVPGNYTFRLTVVDTDGATDSTTADLTVNKAVDHHHHHH | – | – | – | – | 100 | 89.1 | 17.6 | –
10 | AVR25c_T474R (AVR25c with T474R) (receptor) MGSAGESDQITLPKHEAQLKVYVLLVPPKGEASTYDWQLITHPRDYSGEMEGEHSQILKLSNLTPGLYEYRAVVEGQNAHSEGYVNVTVEPGPRKNRPPIAIVSPQFQEISLPTTSAVIDGSQSTDDDKIVQYHWEELKGPLREEKISEDTPILKLSNLVPGNYRFRLTVVDTDGATDSTTADLTVNKAVDHHHHHH | – | – | – | – | – | – | – | Remaining activity [%] [7]: 100%
11 | AVR27d (AVR25c with K455R, T474R) (receptor) MGSAGESDQITLPKHEAQLKVYVLLVPPKGEASTYDWQLITHPRDYSGEMEGEHSQILKLSNLTPGLYEYRAVVEGQNAHSEGYVNVTVEPGPRKNRPPIAIVSPQFQEISLPTTSAVIDGSQSTDDDKIVQYHWEELKGPLREERISEDTPILKLSNLVPGNYRFRLTVVDTDGATDSTTADLTVNKAVDHHHHHH | – | 100 | – | 5.11 | – | – | – | Remaining activity [%] [10]: 15.8%
12 | AVR29a (AVR25c with I366F, V394A, K455R, T474R) (receptor) MGSAGESDQITLPKHEAQLKVYVLLVPPKGEASTYDWQLITHPRDYSGEMEGEHSQFLKLSNLTPGLYEYRAVVEGQNAHSEGYANVTVEPGPRKNRPPIAIVSPQFQEISLPTTSAVIDGSQSTDDDKIVQYHWEELKGPLREERISEDTPILKLSNLVPGNYRFRLTVVDTDGATDSTTADLTVNKAVDHHHHHH | – | 100 | – | – | – | – | – | Remaining activity [%] [6]: 24.2%; Remaining activity [%] [8]: 5.07%
13 | AVR24a (AVR21 with N329K, E401G, T426A) (receptor) MGSAGESDQITLPKHEAQLKVYVLLVPPKGEASTYDWQLITHPRDYSGEMEGEHSQILKLSNLTPGLYEYRAVVEGQNAHSEGYVNVTVEPGPRKNRPPIAIVSPQFQEISLPTTSAVIDGSQSTDDDKIVQYHWEELKGPLREEKISEDTAILKLSQLVPGNYTFRLTVVDTDGATDSTTADLTVNKAVDHHHHHH | – | – | – | – | 100 | 37.6 | 0.3 | –
